Data set [1] deals with T1, zif268 DBD R18D (DE) (UniProt P08046 331-420, R349D). The data set can be described thus: EMSA (Scatchard); 30 mM Tris-HCl pH 8.0, 50 mM NaCl, 0.1 mg/ml BSA, 3 mM DTT, 20 uM ZnSO4, 5 ug/ml poly(dI-dC), 1 h on ice; 10% polyacrylamide gel.
The target in data set [2] is T2, zif268 DBD E21N (RN) (UniProt P08046 331-420, E352N). Described as above.
In data set [3] the target is T3, zif268 DBD R18Q (QE) (UniProt P08046 331-420, R349Q). Described as above.
For data set [4], the target named is T4, zif268 DBD wild type (RE) (UniProt P08046 331-420). Described as above.
The target of data set [5] is T1, zif268 DBD R18D (DE). The data set can be described thus: competition EMSA (QuMFRA); 30 mM Tris-HCl pH 8.0, 50 mM NaCl, 0.1 mg/ml BSA, 3 mM DTT, 20 uM ZnSO4, 5 ug/ml poly(dI-dC), 1 h on ice; 10% polyacrylamide gel.
Data set [6] deals with T2, zif268 DBD E21N (RN). The description is as above.
In data set [7] the target is T3, zif268 DBD R18Q (QE). The description is as above.
For data set [8], the target named is T5, zif268 DBD R18Q/E21N (QN) (UniProt P08046 331-420, R349Q;E352N). The description is as above.
The target in data set [9] is T6, zif268 DBD R18D/E21N (DN) (UniProt P08046 331-420, R349D;E352N). Described as above.
In data set [10] the target is T4, zif268 DBD wild type (RE). The description is as above.
Data set [11] concerns the target T5, zif268 DBD R18Q/E21N (QN). The data set can be described thus: EMSA (Scatchard x QuMFRA); derived; 30 mM Tris-HCl pH 8.0, 50 mM NaCl, 0.1 mg/ml BSA, 3 mM DTT, 20 uM ZnSO4, 5 ug/ml poly(dI-dC), 1 h on ice; 10% polyacrylamide gel.
Data set [12] deals with T6, zif268 DBD R18D/E21N (DN). The description is as above.
For data set [13], the target named is T1, zif268 DBD R18D (DE). Described as above.
For data set [14], the target named is T2, zif268 DBD E21N (RN). The data set is described as above.
Data set [15] deals with T3, zif268 DBD R18Q (QE). The data set is described as above.
Data set [16] concerns the target T4, zif268 DBD wild type (RE). Described as above.
Data set [17] has as its target T5, zif268 DBD R18Q/E21N (QN). The data set can be described thus: EMSA (Scatchard); 30 mM Tris-HCl pH 8.0, 50 mM NaCl, 0.1 mg/ml BSA, 3 mM DTT, 20 uM ZnSO4, 5 ug/ml poly(dI-dC), 1 h on ice; 10% polyacrylamide gel.
Data set [18] deals with T6, zif268 DBD R18D/E21N (DN). The description is as above.

B1: Zif_3 (CC) (dsDNA)
DNA 1: TCGAGGTCGACGGTATCGCGTGGGCCCTCCACTAGTTCTAGAGCGGCCGCCAC
DNA 2: GTGGCGGCCGCTCTAGAACTAGTGGAGGGCCCACGCGATACCGTCGACCTCGA
Consider B1, for which the Ka with zif268 DBD R18D (DE) [1] was 4.7 10^6 M-1; with zif268 DBD E21N (RN) [2], 33 10^6 M-1; with zif268 DBD R18Q (QE) [3] it was 6.4 10^6 M-1; in [4], 33 10^6 M-1; in data set [11], 3.9 10^6 M-1; in [12] it was 3.1 10^6 M-1. The binding signal was 1.91 Ka relative to CG with zif268 DBD R18D (DE) [5]; 0.41 Ka relative to CG with zif268 DBD E21N (RN) [6]; 2.17 Ka relative to CG in the data set with zif268 DBD R18Q (QE) [7]; 0.53 Ka relative to CG in data set [8]; 2.61 Ka relative to CG in data set [9]; 0.082 Ka relative to CG in data set [10].

B2: Zif_2 (CA) (dsDNA)
DNA 1: TCGAGGTCGACGGTATCGCGTGGGCACTCCACTAGTTCTAGAGCGGCCGCCAC
DNA 2: GTGGCGGCCGCTCTAGAACTAGTGGAGTGCCCACGCGATACCGTCGACCTCGA
Consider B2, for which the binding signal with zif268 DBD R18D (DE) [5] is 1.16 Ka relative to CG; in the data set with zif268 DBD E21N (RN) [6], 0.36 Ka relative to CG; in the data set with zif268 DBD R18Q (QE) [7] it was 1.5 Ka relative to CG; in [8], 0.49 Ka relative to CG; in data set [9], 1.21 Ka relative to CG; in [10], 0.27 Ka relative to CG. Besides, the Ka with zif268 DBD R18D (DE) [13] is 2.8 10^6 M-1; in the data set with zif268 DBD E21N (RN) [14], 30 10^6 M-1; in the data set with zif268 DBD R18Q (QE) [15], 4.5 10^6 M-1; in [11], 3.5 10^6 M-1; in data set [12], 1.4 10^6 M-1; in [16], 109 10^6 M-1.

B3: Zif_1 (CG) (dsDNA)
DNA 1: TCGAGGTCGACGGTATCGCGTGGGCGCTCCACTAGTTCTAGAGCGGCCGCCAC
DNA 2: GTGGCGGCCGCTCTAGAACTAGTGGAGCGCCCACGCGATACCGTCGACCTCGA
In the case of B3, the Ka in the data set with zif268 DBD R18D (DE) [13] is 2.5 10^6 M-1; with zif268 DBD E21N (RN) [14] it was 81 10^6 M-1; with zif268 DBD R18Q (QE) [15] it was 3 10^6 M-1; in data set [11], 7.4 10^6 M-1; in [12], 1.2 10^6 M-1; in data set [16], 406 10^6 M-1.

B4: Zif_6 (AC) (dsDNA)
DNA 1: TCGAGGTCGACGGTATCGCGTGGGACCTCCACTAGTTCTAGAGCGGCCGCCAC
DNA 2: GTGGCGGCCGCTCTAGAACTAGTGGAGGTCCCACGCGATACCGTCGACCTCGA
On to B4, for which the binding signal with zif268 DBD R18D (DE) [5] is 3.08 Ka relative to CG; in the data set with zif268 DBD E21N (RN) [6] it was 0.94 Ka relative to CG; with zif268 DBD R18Q (QE) [7] it was 1.93 Ka relative to CG; in data set [8], 2.78 Ka relative to CG; in data set [9], 11.8 Ka relative to CG; in [10], 0.041 Ka relative to CG. In addition, the Ka in the data set with zif268 DBD R18D (DE) [13] is 5.5 10^6 M-1; with zif268 DBD E21N (RN) [14], 77 10^6 M-1; with zif268 DBD R18Q (QE) [15], 5.7 10^6 M-1; in data set [11] it was 21 10^6 M-1; in data set [12], 14 10^6 M-1; in data set [16], 16 10^6 M-1.

B5: Zif_5 (AA) (dsDNA)
DNA 1: TCGAGGTCGACGGTATCGCGTGGGAACTCCACTAGTTCTAGAGCGGCCGCCAC
DNA 2: GTGGCGGCCGCTCTAGAACTAGTGGAGTTCCCACGCGATACCGTCGACCTCGA
For B5, the binding signal with zif268 DBD R18D (DE) [5] is 2.25 Ka relative to CG; with zif268 DBD E21N (RN) [6], 0.68 Ka relative to CG; with zif268 DBD R18Q (QE) [7], 1.36 Ka relative to CG; in data set [8], 2.47 Ka relative to CG; in data set [9], 4.02 Ka relative to CG; in data set [10] it was 0.064 Ka relative to CG. For the same molecule, the Ka in the data set with zif268 DBD R18D (DE) [13] was 3.7 10^6 M-1; with zif268 DBD E21N (RN) [14] it was 56 10^6 M-1; with zif268 DBD R18Q (QE) [15], 4 10^6 M-1; in [11], 18 10^6 M-1; in data set [12], 4.8 10^6 M-1; in [16], 26 10^6 M-1.

B6: Zif_4 (AG) (dsDNA)
DNA 1: TCGAGGTCGACGGTATCGCGTGGGAGCTCCACTAGTTCTAGAGCGGCCGCCAC
DNA 2: GTGGCGGCCGCTCTAGAACTAGTGGAGCTCCCACGCGATACCGTCGACCTCGA
As for B6, the Ka in data set [17] is 33 10^6 M-1; in data set [18] it was 17 10^6 M-1; in the data set with zif268 DBD R18D (DE) [13], 3.6 10^6 M-1; with zif268 DBD E21N (RN) [14], 105 10^6 M-1; with zif268 DBD R18Q (QE) [15], 3.9 10^6 M-1; in data set [16] it was 63 10^6 M-1. Also, the binding signal with zif268 DBD R18D (DE) [5] was 1.48 Ka relative to CG; with zif268 DBD E21N (RN) [6] it was 1.29 Ka relative to CG; in the data set with zif268 DBD R18Q (QE) [7], 1.3 Ka relative to CG; in [8], 4.45 Ka relative to CG; in data set [9] it was 14.5 Ka relative to CG; in [10] it was 0.15 Ka relative to CG.

For the origin of these results see article PMC1184061.
